In assay [1] the target is T1, p76 fragment of MALT1 (Avi-tagged expression construct) (human, UniProt Q9UDY8 150-824, Avi-tag biotinylated in vivo by co-expressed BirA).
T1 construct: domain: p76 cleavage fragment; Lacks the N-terminal death domain; also called MALT1 p76; 76 kDa C-terminal fragment
T1 sequence (looked up): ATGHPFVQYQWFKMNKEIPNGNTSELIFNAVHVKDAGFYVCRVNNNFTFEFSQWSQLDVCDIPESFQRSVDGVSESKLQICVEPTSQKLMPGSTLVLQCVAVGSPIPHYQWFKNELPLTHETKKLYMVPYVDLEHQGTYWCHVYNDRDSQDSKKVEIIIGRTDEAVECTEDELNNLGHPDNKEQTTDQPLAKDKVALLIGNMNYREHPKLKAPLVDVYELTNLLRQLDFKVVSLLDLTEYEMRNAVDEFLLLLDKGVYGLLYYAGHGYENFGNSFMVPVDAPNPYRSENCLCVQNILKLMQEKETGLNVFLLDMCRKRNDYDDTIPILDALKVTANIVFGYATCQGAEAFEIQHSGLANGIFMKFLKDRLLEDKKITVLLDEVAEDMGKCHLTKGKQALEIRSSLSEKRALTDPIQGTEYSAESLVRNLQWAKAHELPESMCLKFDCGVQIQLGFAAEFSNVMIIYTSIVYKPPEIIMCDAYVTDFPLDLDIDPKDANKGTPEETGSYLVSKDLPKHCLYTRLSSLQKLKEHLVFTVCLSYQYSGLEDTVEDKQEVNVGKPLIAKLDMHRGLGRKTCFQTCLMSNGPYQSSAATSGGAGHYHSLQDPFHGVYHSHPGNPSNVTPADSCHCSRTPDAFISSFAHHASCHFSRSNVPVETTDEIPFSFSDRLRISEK
Description: bio-IP from HEK293T cells, anti-BCL10 immunoblot. An excerpt:
FIG. 5: p76 activates NFκB via TRAF6. […] Panel B) TRAF6 mediates NFκB signaling by p76. Top: NFκB-reporter assays of HEK293T cells transiently expressing MALT1, p76 and mutants or MALT1-C. Bottom: MALT1, p76 or MALT1-C, transiently expressed in HEK293T cells, were purified via bio-IPs and immunoblotted with anti-MALT1 (to show equal expression), anti-TRAF6 and anti-BCL10. Panel C) p76 induces polyubiquitination of IKKγ. Immunoblot analysis of bio-IP and IKKγ-IP of 293T cells transfected with pcD-F-IKKγ and pcd-HA-Ub in combination with indicated Avi-tagged MALT1 constructs. Panel D) BCL10 is not involved in NFκB signaling by p76. NFκB reporter assays of HEK-293T cells transfected with siRNA duplexes against MALT1, BCL10 or GFP (as control) followed by transient transfection with p76. The expression levels were determined by immunoblot with anti-MALT1 and anti-BCL10. NFκB-dependent luciferase activity […] is shown as fold induction of vector-transfected cells and represents the mean+/−S.D. of three independent experiments.

The next assay has as its target T2, MALT1-R149A (bio-tagged) (human, UniProt Q9UDY8 1-824, Avi-tag biotinylated in vivo by co-expressed BirA).
T2 construct: also called R149A mutant
T2 sequence (looked up): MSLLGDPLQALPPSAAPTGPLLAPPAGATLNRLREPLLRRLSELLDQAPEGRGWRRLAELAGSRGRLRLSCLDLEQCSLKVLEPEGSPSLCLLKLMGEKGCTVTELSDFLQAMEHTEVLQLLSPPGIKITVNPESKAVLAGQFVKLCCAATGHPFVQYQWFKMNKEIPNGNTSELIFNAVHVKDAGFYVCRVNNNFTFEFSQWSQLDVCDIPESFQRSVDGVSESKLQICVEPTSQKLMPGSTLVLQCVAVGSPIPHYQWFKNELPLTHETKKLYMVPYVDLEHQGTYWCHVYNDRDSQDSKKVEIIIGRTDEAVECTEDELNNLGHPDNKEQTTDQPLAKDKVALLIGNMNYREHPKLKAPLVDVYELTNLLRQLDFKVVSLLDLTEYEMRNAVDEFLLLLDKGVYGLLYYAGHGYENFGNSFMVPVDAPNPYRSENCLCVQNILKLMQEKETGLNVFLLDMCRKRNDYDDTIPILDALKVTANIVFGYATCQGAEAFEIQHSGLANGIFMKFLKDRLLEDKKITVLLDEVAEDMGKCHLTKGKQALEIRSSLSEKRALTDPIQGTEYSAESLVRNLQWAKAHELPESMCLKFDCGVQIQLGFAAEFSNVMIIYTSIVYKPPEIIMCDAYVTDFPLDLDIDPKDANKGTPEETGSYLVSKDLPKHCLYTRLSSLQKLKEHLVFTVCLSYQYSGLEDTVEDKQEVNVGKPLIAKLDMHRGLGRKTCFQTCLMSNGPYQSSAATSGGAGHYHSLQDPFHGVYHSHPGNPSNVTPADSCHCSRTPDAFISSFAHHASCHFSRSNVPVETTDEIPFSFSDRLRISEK
Description: co-IP (bio-IP, immunoblot).

In a further assay the target is T3, MALT1-C464A (bio-tagged) (human, UniProt Q9UDY8 1-824).
T3 construct: also called C464A mutant; C464 mutant
T3 sequence (looked up): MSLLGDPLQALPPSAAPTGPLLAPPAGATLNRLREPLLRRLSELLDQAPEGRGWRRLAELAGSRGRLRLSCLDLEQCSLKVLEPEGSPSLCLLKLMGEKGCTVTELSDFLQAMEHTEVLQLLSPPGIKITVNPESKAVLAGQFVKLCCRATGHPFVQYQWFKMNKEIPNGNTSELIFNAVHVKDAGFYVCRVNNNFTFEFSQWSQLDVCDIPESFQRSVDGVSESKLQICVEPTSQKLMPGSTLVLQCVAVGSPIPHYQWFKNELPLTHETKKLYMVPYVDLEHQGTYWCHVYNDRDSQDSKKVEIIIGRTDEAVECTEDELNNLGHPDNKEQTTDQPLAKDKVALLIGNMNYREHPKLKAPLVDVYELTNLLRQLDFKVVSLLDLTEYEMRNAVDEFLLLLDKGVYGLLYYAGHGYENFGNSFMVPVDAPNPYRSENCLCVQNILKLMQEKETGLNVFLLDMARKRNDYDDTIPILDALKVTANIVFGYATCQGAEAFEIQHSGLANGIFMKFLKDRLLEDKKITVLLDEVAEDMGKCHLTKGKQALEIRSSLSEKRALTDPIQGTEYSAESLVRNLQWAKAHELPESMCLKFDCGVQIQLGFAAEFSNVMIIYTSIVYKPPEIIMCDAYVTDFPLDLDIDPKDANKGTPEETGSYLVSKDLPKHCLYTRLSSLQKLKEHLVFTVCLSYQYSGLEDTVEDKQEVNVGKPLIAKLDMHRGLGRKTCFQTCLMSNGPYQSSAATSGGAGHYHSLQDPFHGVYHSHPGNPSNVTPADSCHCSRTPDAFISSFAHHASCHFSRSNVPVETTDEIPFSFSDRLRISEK
Description: co-IP (bio-IP, immunoblot). (A western blot detects proteins with antibodies after separation by electrophoresis.)

B1: BCL10 (other, UniProt O95999 1-233, looked up)
chain: MEPTAPSLTEEDLTEVKKDALENLRVYLCEKIIAERHFDHLRAKKILSREDTEEISCRTSSRKRAGKLLDYLQENPKGLDTLVESIRREKTQNFLIQKITDEVLKLRNIKLEHLKGLKCSSCEPFPDGATNNLSRSNSDESNFSEKLRASTVMYHPEGESSTTPFFSTNSSLNLPVLEVGRTENTIFSSTTLPRPGDPGAPPLPPDLQLEEEGTCANSSEMFLPLRSRTVSRQ
notes: Co-precipitated from lysates of human cell lines
With B1, the binding result in assay [1] is “no binding”; with MALT1-R149A (bio-tagged) it was “binds”; with MALT1-C464A (bio-tagged), “binds”.

(Values after US8309523 (VIB VZW, dated 2012).)
